Measured values published in patent publication US20220017591A1 (AstraZeneca / MedImmune, published 2022).
Like-named read-outs stand apart in the source and are kept apart here.

T1: human RXFP1 (human, UniProt Q9HBX9 1-757)
T1 sequence (looked up): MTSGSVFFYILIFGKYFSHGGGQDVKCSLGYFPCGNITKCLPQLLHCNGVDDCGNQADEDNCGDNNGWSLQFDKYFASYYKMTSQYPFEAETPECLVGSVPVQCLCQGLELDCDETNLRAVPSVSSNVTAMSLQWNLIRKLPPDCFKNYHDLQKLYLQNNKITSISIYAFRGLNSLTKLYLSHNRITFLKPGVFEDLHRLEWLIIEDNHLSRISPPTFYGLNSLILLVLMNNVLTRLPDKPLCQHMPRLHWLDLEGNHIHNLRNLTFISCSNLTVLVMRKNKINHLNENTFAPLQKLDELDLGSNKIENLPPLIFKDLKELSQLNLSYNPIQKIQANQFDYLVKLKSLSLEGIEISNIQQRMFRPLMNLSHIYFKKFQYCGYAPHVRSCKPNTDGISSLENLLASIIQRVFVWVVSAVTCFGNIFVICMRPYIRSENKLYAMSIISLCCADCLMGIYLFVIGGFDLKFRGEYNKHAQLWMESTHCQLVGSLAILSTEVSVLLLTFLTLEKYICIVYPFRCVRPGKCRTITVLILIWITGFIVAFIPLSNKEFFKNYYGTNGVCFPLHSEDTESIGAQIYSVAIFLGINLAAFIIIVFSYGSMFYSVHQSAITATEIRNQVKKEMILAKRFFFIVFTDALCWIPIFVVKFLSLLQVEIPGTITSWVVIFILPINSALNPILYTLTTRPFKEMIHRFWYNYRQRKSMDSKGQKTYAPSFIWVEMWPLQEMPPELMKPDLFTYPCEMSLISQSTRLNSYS

T2: mouse RXFP1 (mouse, UniProt Q6R6I7 1-758)
T2 sequence (looked up): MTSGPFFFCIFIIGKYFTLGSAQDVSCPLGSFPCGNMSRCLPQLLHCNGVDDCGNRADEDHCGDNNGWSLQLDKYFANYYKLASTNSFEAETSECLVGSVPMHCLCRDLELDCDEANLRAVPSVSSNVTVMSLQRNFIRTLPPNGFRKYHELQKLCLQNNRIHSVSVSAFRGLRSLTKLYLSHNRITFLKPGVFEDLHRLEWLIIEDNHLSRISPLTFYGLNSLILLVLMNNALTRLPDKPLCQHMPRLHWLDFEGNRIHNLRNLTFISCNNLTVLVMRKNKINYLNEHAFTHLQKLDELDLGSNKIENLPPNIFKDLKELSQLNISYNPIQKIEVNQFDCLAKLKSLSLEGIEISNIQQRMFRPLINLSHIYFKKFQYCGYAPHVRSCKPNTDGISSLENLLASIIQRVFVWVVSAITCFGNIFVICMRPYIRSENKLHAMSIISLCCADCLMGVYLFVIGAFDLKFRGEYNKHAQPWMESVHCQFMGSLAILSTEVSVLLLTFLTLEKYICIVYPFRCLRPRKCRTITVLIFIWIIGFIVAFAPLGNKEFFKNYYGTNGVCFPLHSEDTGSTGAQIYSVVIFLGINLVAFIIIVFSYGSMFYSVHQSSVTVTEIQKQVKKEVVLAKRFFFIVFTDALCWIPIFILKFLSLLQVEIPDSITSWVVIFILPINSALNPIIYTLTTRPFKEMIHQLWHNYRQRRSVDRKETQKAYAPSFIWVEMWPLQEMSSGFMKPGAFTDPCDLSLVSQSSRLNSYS

B1: RELAX0039 (Fc fusion)
chain 1: DKTHTACPPCPAPEFEGGPSVFLFPPKPKDTLMISRTPEVTCVVVDVSHEDPEVKFNWYVDGVEVHNAKTKPREEQYNSTYRVVSVLTVLHQDWLNGKEYKCKVSNKALPASIEKTISKAKGQPREPQVYTLPPCREEMTKNQVSLWCLVKGFYPSDIAVEWESNGQPENNYKTTPPVLDSDGSFFLYSKLTVDKSRWQQGNVFSCSVMHEALHNHYTQKSLSLSPGGGGGSGGGGSGGGGSGGGGGSQLYSALANMCCHVGCTKRSLARFC
chain 2: DKTHTCPPCPAPEFEGGPSVFLFPPKPKDTLMISRTPEVTCVVVDVSHEDPEVKFNWYVDGVEVHNAKTKPREEQYNSTYRVVSVLTVLHQDWLNGKEYKCKVSNKALPASIEKTISKAKGQPREPQVCTLPPSREEMTKNQVSLSCAVKGFYPSDIAVEWESNGQPENNYKTTPPVLDSDGSFFLVSKLTVDKSRWQQGNVFSCSVMHEALHNHYTQKSLSLSPGGGGGSGGGGSGGGGSGGGGGSSWMEEVIKLCGRELVRAQIAICGMSTWS
B2: RELAX0052 (Fc fusion)
chain 1: DKTHTACPPCPAPEFEGGPSVFLFPPKPKDTLMISRTPEVTCVVVDVSHEDPEVKFNWYVDGVEVHNAKTKPREEQYNSTYRVVSVLTVLHQDWLNGKEYKCKVSNKALPASIEKTISKAKGQPREPQVYTLPPCREEMTKNQVSLWCLVKGFYPSDIAVEWESNGQPENNYKTTPPVLDSDGSFFLYSKLTVDKSRWQQGNVFSCSVMHEALHNHYTQKSLSLSPGGGGGSGGGGSGGGGSGGGGGSQLYSALANKCCHVGCTKESLARFC
chain 2: DKTHTCPPCPAPEFEGGPSVFLFPPKPKDTLMISRTPEVTCVVVDVSHEDPEVKFNWYVDGVEVHNAKTKPREEQYNSTYRVVSVLTVLHQDWLNGKEYKCKVSNKALPASIEKTISKAKGQPREPQVCTLPPSREEMTKNQVSLSCAVKGFYPSDIAVEWESNGQPENNYKTTPPVLDSDGSFFLVSKLTVDKSRWQQGNVFSCSVMHEALHNHYTQKSLSLSPGGGGGSGGGGSGGGGSGGGGGSSWMEEVIKLCGRELVRAQIAICGMSTWS
B3: RELAX0040 (Fc fusion)
chain 1: DKTHTACPPCPAPEFEGGPSVFLFPPKPKDTLMISRTPEVTCVVVDVSHEDPEVKFNWYVDGVEVHNAKTKPREEQYNSTYRVVSVLTVLHQDWLNGKEYKCKVSNKALPASIEKTISKAKGQPREPQVYTLPPCREEMTKNQVSLWCLVKGFYPSDIAVEWESNGQPENNYKTTPPVLDSDGSFFLYSKLTVDKSRWQQGNVFSCSVMHEALHNHYTQKSLSLSPGGGGGSGGGGSGGGGSGGGGGSQLYSALANLCCHVGCTKRSLARFC
chain 2: DKTHTCPPCPAPEFEGGPSVFLFPPKPKDTLMISRTPEVTCVVVDVSHEDPEVKFNWYVDGVEVHNAKTKPREEQYNSTYRVVSVLTVLHQDWLNGKEYKCKVSNKALPASIEKTISKAKGQPREPQVCTLPPSREEMTKNQVSLSCAVKGFYPSDIAVEWESNGQPENNYKTTPPVLDSDGSFFLVSKLTVDKSRWQQGNVFSCSVMHEALHNHYTQKSLSLSPGGGGGSGGGGSGGGGSGGGGGSSWMEEVIKLCGRELVRAQIAICGMSTWS
B4: RELAX0053 (Fc fusion)
chain 1: DKTHTACPPCPAPEFEGGPSVFLFPPKPKDTLMISRTPEVTCVVVDVSHEDPEVKFNWYVDGVEVHNAKTKPREEQYNSTYRVVSVLTVLHQDWLNGKEYKCKVSNKALPASIEKTISKAKGQPREPQVYTLPPCREEMTKNQVSLWCLVKGFYPSDIAVEWESNGQPENNYKTTPPVLDSDGSFFLYSKLTVDKSRWQQGNVFSCSVMHEALHNHYTQKSLSLSPGGGGGSGGGGSGGGGSGGGGGSQLYSALANKCCHVGCTKHSLARFC
chain 2: DKTHTCPPCPAPEFEGGPSVFLFPPKPKDTLMISRTPEVTCVVVDVSHEDPEVKFNWYVDGVEVHNAKTKPREEQYNSTYRVVSVLTVLHQDWLNGKEYKCKVSNKALPASIEKTISKAKGQPREPQVCTLPPSREEMTKNQVSLSCAVKGFYPSDIAVEWESNGQPENNYKTTPPVLDSDGSFFLVSKLTVDKSRWQQGNVFSCSVMHEALHNHYTQKSLSLSPGGGGGSGGGGSGGGGSGGGGGSSWMEEVIKLCGRELVRAQIAICGMSTWS
B5: RELAX0041 (Fc fusion)
chain 1: DKTHTACPPCPAPEFEGGPSVFLFPPKPKDTLMISRTPEVTCVVVDVSHEDPEVKFNWYVDGVEVHNAKTKPREEQYNSTYRVVSVLTVLHQDWLNGKEYKCKVSNKALPASIEKTISKAKGQPREPQVYTLPPCREEMTKNQVSLWCLVKGFYPSDIAVEWESNGQPENNYKTTPPVLDSDGSFFLYSKLTVDKSRWQQGNVFSCSVMHEALHNHYTQKSLSLSPGGGGGSGGGGSGGGGSGGGGGSQLYSALANHCCHVGCTKRSLARFC
chain 2: DKTHTCPPCPAPEFEGGPSVFLFPPKPKDTLMISRTPEVTCVVVDVSHEDPEVKFNWYVDGVEVHNAKTKPREEQYNSTYRVVSVLTVLHQDWLNGKEYKCKVSNKALPASIEKTISKAKGQPREPQVCTLPPSREEMTKNQVSLSCAVKGFYPSDIAVEWESNGQPENNYKTTPPVLDSDGSFFLVSKLTVDKSRWQQGNVFSCSVMHEALHNHYTQKSLSLSPGGGGGSGGGGSGGGGSGGGGGSSWMEEVIKLCGRELVRAQIAICGMSTWS
B6: RELAX0043 (Fc fusion)
chain 1: DKTHTACPPCPAPEFEGGPSVFLFPPKPKDTLMISRTPEVTCVVVDVSHEDPEVKFNWYVDGVEVHNAKTKPREEQYNSTYRVVSVLTVLHQDWLNGKEYKCKVSNKALPASIEKTISKAKGQPREPQVYTLPPCREEMTKNQVSLWCLVKGFYPSDIAVEWESNGQPENNYKTTPPVLDSDGSFFLYSKLTVDKSRWQQGNVFSCSVMHEALHNHYTQKSLSLSPGGGGGSGGGGSGGGGSGGGGGSQLYSALANECCHVGCTKRSLARFC
chain 2: DKTHTCPPCPAPEFEGGPSVFLFPPKPKDTLMISRTPEVTCVVVDVSHEDPEVKFNWYVDGVEVHNAKTKPREEQYNSTYRVVSVLTVLHQDWLNGKEYKCKVSNKALPASIEKTISKAKGQPREPQVCTLPPSREEMTKNQVSLSCAVKGFYPSDIAVEWESNGQPENNYKTTPPVLDSDGSFFLVSKLTVDKSRWQQGNVFSCSVMHEALHNHYTQKSLSLSPGGGGGSGGGGSGGGGSGGGGGSSWMEEVIKLCGRELVRAQIAICGMSTWS
B7: RELAX0111 (Fc fusion)
chain 1: DKTHTCPPCPAPEFEGGPSVFLFPPKPKDTLMISRTPEVTCVVVDVSHEDPEVKFNWYVDGVEVHNAKTKPREEQYNSTYRVVSVLTVLHQDWLNGKEYKCKVSNKALPASIEKTISKAKGQPREPQVYTLPPCREEMTKNQVSLWCLVKGFYPSDIAVEWESNGQPENNYKTTPPVLDSDGSFFLYSKLTVDKSRWQQGNVFSCSVMHEALHNHYTQKSLSLSPGGGGGGSQLYSALANKCCHVGCTKRSLARFC
chain 2: DKTHTCPPCPAPEFEGGPSVFLFPPKPKDTLMISRTPEVTCVVVDVSHEDPEVKFNWYVDGVEVHNAKTKPREEQYNSTYRVVSVLTVLHQDWLNGKEYKCKVSNKALPASIEKTISKAKGQPREPQVYTLPPCREEMTKNQVSLWCLVKGFYPSDIAVEWESNGQPENNYKTTPPVLDSDGSFFLYSKLTVDKSRWQQGNVFSCSVMHEALHNHYTQKSLSLSPGAAPAPAPAPAPAPAGSSWMEEVIKLCGRELVRAQIAICGMSTWS

Key:
Assay in all cases: cell-based or functional assay
human RXFP1 [1] = target: T1, human RXFP1
mouse RXFP1 [2] = target: T2, mouse RXFP1
human RXFP2 [3] = target: T3, human RXFP2 (human, UniProt Q8WXD0 1-754)
T3 sequence (Q8WXD0 whole entry): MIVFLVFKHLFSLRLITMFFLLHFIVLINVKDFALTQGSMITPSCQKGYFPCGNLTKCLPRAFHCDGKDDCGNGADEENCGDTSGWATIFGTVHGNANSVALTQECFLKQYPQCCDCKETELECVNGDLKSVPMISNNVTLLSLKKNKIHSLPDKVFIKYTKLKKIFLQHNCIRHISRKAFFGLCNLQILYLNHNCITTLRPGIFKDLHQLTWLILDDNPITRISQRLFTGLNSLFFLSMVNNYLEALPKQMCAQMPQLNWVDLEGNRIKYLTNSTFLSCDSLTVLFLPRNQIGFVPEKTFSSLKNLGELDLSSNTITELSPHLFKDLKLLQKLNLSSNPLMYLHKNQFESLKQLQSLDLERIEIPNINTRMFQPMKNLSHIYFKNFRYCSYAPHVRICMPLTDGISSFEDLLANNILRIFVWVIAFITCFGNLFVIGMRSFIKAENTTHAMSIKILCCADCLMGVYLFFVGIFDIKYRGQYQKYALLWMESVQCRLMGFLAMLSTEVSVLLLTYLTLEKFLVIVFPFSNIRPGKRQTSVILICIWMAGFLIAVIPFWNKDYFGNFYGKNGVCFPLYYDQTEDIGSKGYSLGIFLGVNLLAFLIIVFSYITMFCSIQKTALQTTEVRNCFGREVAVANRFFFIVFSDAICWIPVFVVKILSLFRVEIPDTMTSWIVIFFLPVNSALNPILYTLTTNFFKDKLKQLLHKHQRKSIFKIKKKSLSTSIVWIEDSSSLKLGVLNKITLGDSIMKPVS

human RXFP1 [4] = target: T1, human RXFP1; remark: listed apart in the source
mouse RXFP1 [5] = target: T2, mouse RXFP1; remark: listed apart in the source
human RXFP2 [6] = target: T3, human RXFP2; remark: listed apart in the source

| Binder | EC50 hRXFP1 (M), cAMP assay (human RXFP1 [1]) | EC50 mRXFP1 (M), cAMP assay (mouse RXFP1 [2]) | EC50 hRXFP2 (M), cAMP assay (human RXFP2 [3]) | EC50 hRXFP1 (M), cAMP assay (human RXFP1 [4]) | EC50 mRXFP1 (M), cAMP assay (mouse RXFP1 [5]) | EC50 hRXFP2 (M), cAMP assay (human RXFP2 [6]) |
| --- | --- | --- | --- | --- | --- | --- |
| B1 | 6.54e-11 M | 4.25e-11 M | 1.08e-07 M | – | – | – |
| B2 | 9.67e-11 M | 5.69e-11 M | 1.05e-07 M | – | – | – |
| B3 | 5.92e-11 M | 2.92e-11 M | > 1.27e-07 M | – | – | – |
| B4 | 7.15e-11 M | 4.36e-11 M | > 1.79e-07 M | – | – | – |
| B5 | 6.22e-11 M | 3.17e-11 M | 1.18e-07 M | – | – | – |
| B6 | 7.98e-11 M | 5.58e-11 M | > 1.58e-07 M | – | – | – |
| B7 | – | – | – | 1.93e-09 M | 1.24e-09 M | > 6.06e-08 M |
